# Reference: the supplement of paper PMC9170038
# Tested on: MS2 coat protein
# Assay: apparent KD of MS2 coat protein; higher = weaker reporter binding
# Conditions: Eterna round: R107; input ligand: theophylline 20 uM
# Method: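 RNA-MaP round R107: designed RNA switches with theophylline, tryptophan, arginine or FMN aptamers are transcribed on-chip within common flanks. They are titrated with SNAP-549-labelled MS2 coat protein in RNA-MaP buffer (100 mM Tris pH 7.5, 80 mM KCl, 4 mM MgCl2), without ligand or with the indicated ligand. Median apparent KD per design.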
row,Sequence,apparent KD of MS2 coat protein
1,AGAUGAGUCACGGCCGCCACUCUUAUCAGGAUCACCCAUGGUUGACAUGAGGAUCACCCAUGUAUGAGGACCGGGUGAUGAGCAU [XTryp B #1],15.9 nM
2,ACCGCGGUAUCGGCCGCCACUUGUGGGUUAAAUCUGGUACAUGAGGAUCACCCAUGUGUCUCCUCGAGGACCGGGAUAGCGUGAC [Geaner],168 nM
3,AGUACAUGAGGAUCACCCAUGUAUCGGUACCGAGGACCGGUACGGCCGCCACUCGCAGGACAUGAGGAUCACCCAUGUGCAGCCG [SSTA DOUBLE!!! :-D #10],40.9 nM
4,UGUAUGGACUGAAGGAGCGGAAGAUAGCUUGAGGAUCACCCAAGUAAUAAGGCGAAAGCCUUCCAGGUAGGUCGCAGUCCAUACU,43.1 nM
5,UGCCUAGACGUGGAUUACCCGUGUACCGAAGGAGCGCCCGAAAGGGCAGGUAGGUCGCGGAGGACAUGAGGAUCACCCAUGUUUG,123 nM
6,UAUCGUCAGACGGCCGCCACUAGUACAUGAGGAUCACCCAUGUAGGUCCUAGAUUCCUCAUGAUCUAGGACCGGGUCUGACGAAU [(Trp1)-(Ms2)-(T)'-(M)'-(Trp2)_Design16],61.5 nM
7,UAGAGCCAGUCGGCCGCCACUCUCCAUAUGUGAGCCUUUAAGUUCUACAUGAGGAUCACCCAUGUGAGGACCGGGACCGAAUCUA [theeternabot_exclusion_MS2_Trp_B_18],80.3 nM
8,CCGAACAUGAGGAUCACCCAUGUUAGGGAUACCAGCCCAGACAUGGGCCCUUGGCAGCUCUAUAGCUGACGAAAGUCAGCAUCGG [#14 SameState-TheophyllineA],65.7 nM
9,UGUAUGGACUGAAGGAGCGCCUCAAAAUAGCAUGAGGAUCACCCAUGCAAGGCGAAAGCCGGGCAGGUAGGUCGCAGUCCAUACU [ArgBX 3],14 nM
10,GCUCGUUGCAUGGAUACCAGUUGAUAGGCCGCCUCCGGAUACAUGAGGAUCACCCAUGUCAACCCUUGGCAGCCACCCAAUAGGG [theeternabot_exclusion_MS2_Theo_B_27],13.7 nM
11,UGUAUGGACUGAAGGAGCGCCUCAAAAUAACAUGAGGAUCACCCAUGUGGCGAAAGCCUUGGGCAGGUAGGUCGCAGUCCAUACU [ArgBX 1 #StaticStem],76.2 nM
12,CACAUGAGGAUCACCCAUGUCUGAACUGAAGGAGCGCUAAAUAAGGCAGGUAGGUCGCGGAAUCCCGGGUGCAUAUGCACCCGGG [9.aB],30.8 nM
13,AAAAUCCUAUCUGAGGAUCACCCAGGUGAAGGAGCGCCCGAAAGGGCAGGUAGGUCGCACCUGAGGAUCACCCUGGUAAACCUAA [ArgEX 21 #DoubleMS2 #OpenEnded],76.3 nM
14,UGAUCCUAGACUGAUACCAGUCAUGAGUACAUGAGGAUCACCCAUGUCCAGGGACUCAAUGACCCUUGGCAGCAGAACCUAGUUC [Theo B SS t7],414 nM
15,AUUGUGAAGUCGGCCGCCACUGCAUAGUUUAACCACAUGUAACAUGAGGAUCACCCAUGUAAUGACAGGACCGGGACAAUAGUAA [JR_SSTryptoB_Sub023],41.9 nM
16,UCGUCAGGCGCGGCCGCCACUGCGGUGAUGUGACAUGAGGAUCACCCAUGUUGUCAUGUGGCACAUAGGACCGGGUGCCUGGCGA [Exclusion - Tryptophan B Attempt #5 (HarryS)],44.5 nM
17,AAGCUUCGCAUAGGAAAACUAUGUGAAGCUCGAGGACCGGUACGGCCGCCACUCGUCCUCAACAUGAGGAUCACCCAUGUAAUAA [Mat - Exclusion - Trytophan A - D2],28.6 nM
18,UAGAAACGUACGGCCGCCACUCGGAAUUGGCUCAGACCAUACGUACAUGAGGAUCACCCAUGUUAGAGGACCGGGUAUAAUCUAA [theeternabot_sameState_MS2_Trp_B_46],30.8 nM
19,UUGUGGUAGGCGCAUACUCAUUUAUACAAGCGAGGACCGGUACGGCCGCCACUCGGAAUAAAACAUGAGGAUCACCCAUGUACCG [theeternabot_exclusion_MS2_Trp_A_50],17.1 nM

# Same assay, conditions: Eterna round: R107; input ligand: theophylline 2 mM
row,Sequence,apparent KD of MS2 coat protein
1,AAUCUGAUUGCGGCCGCCACUAAUUUUCCAUGAGUAUUGCAAUUACAUGAGGAUCACCCAUGUCAUAGGACCGGGCAUGACAUCU [theeternabot_sameState_MS2_Trp_B_45],309 nM
2,CGCGCGACAUGAGGAUCACCCAUGUUCCCUCGAGGACCGGUACGGCCGCCACUCGAGGACAUGAGCAUCAGCCAUGUACCGGUCA [Default title],66.2 nM
3,CUGUACAUCUCGGCCGCCACUGCUGACAUGGGAGUCACCCAUGUCCACAUGAGGAUCACCCAUGUCAGGACCGGGAGGUGUGCAG [SSTryp B #25],287 nM
4,UAUGCACAUGAGGAUCACCCAUGUAUGGAAGGAGCGGUGAAUGAACCAGGUAGGUCGCCAUGGUGAGGAUCAUCUAUGUAAUCGU [Exclusion - Arginine A (Freestyle 7)],128 nM
5,CCCAGUUAGAUCAAAGGAAUUAUACUCGAAGGAGCGUCAUAGUAGGCAGGUAGGUCGCGAGACAUGAGGAUCACCCAUGUAGAGA [azqmullin],41 nM
6,UGGUGUAGGGUAAAUAGGAUUAGUACAGAAGGAGCGCGAAUAAACGCAGGUAGGUCGCUGGAAUAAACAUGAGGAUCACCCAUGU [Same State Arginine A GF 27],21.5 nM
7,GGAUAGGACACGGCCGCCACUAGCUAGGAUACUAGCAACAUUUCCUCGCAUGAGGAUCACCCAUGUAGGACCGGGUGUCCUAUCG,495 nM
8,AAAAUCCUCCAUGAGGAUCACCCAUGGGAAGGAGCGCCCGAAAGGGCAGGUAGGUCGCCCAUGAGGAUCACCCAUGGAACCUAAA [ArgAX 26 #DoubleMS2 #OpenEnded #AlternativeMS2],118 nM
9,UUUCAGUGGACGGCCGCCACUGAAGUCGAUACAAUCAUGUAGAACAUGAGGAUCACCCAUGUAGUCAGGACCGGGUCCAAUGACU [Tryp B SS t3],22.8 nM
10,UGCCGAGACGUGGAUUACCCGUGUACCGAAGGAGCGCCCGAAAGGGCAGGUAGGUCGCGGAGGACAUGAGGAUCACCCAUGUUGA,96.8 nM
11,UUAGAUUGCCGAAGGAGCGAGAUAGCCUACAUGAGGAUCACCCAUGUAGAAACGGGCUGAUCUCAGGUAGGUCGCGGCAGGUAGC [Soaquatan],25.8 nM
12,UGAUUGAACGGAAGGAGCGUGUAAGAACAAGAACAUGAGGAUCACCCAUGUAUUAAUUUAACACAGGUAGGUCGCCGAGAGAUUG [11.D],14 nM
13,AGAUUCGACACGGCCGCCACUUGUGGUGGAUUAUCCAGUGUCGAACAUGAGGAUCACCCAUGUACAAGGACCGGGUGUUGAGUCU [XTryp B #19],96.3 nM
14,UCGUGUGUUUCGGAUACCAGUGAAAUCGAUACAUGAGGAUCACCCAUGUGAGAGGAUGUACACCCUUGGCAGCUGUCUGUAUCGG [asczmullin],43.8 nM
15,GCUGCACAUUCGGCCGCCACUGCUGUUACAGGAAGCUAUAGCUCACAUGAGGAUCACCCAUGUCCCAGGACCGGGAAAGUAUGGA [theeternabot_sameState_MS2_Trp_B_39],74.2 nM
16,GGACUAACCAGAAGGAGCGACACAGCAGAAACUGCAAAUCCUCCGCACGAGGAUCACCCGUGUCAGGUAGGUCGCUGGUUAGUCG [ArgBX 28],71.6 nM
17,AGAUGAGUCACGGCCGCCACUCUUAUCAGGAUCACCCAUGGUUGACAUGAGGAUCACCCAUGUAUGAGGACCGGGUGAUGAGCAU [XTryp B #1],15 nM
18,ACCGCGGUAUCGGCCGCCACUUGUGGGUUAAAUCUGGUACAUGAGGAUCACCCAUGUGUCUCCUCGAGGACCGGGAUAGCGUGAC [Geaner],211 nM
19,AGUACAUGAGGAUCACCCAUGUAUCGGUACCGAGGACCGGUACGGCCGCCACUCGCAGGACAUGAGGAUCACCCAUGUGCAGCCG [SSTA DOUBLE!!! :-D #10],43.8 nM
